The record followed here is the nanobody polyreactivity screen of Harvey et al. (2022).

This data set is described as follows: yeast display, Sf9 membrane polyspecificity reagent, FACS + sequencing; frameworks hold sequencing errors. Put shortly: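 Sorting gates, low and high (top ~1%), were placed on anti-HA fluorescence to track expression and on streptavidin fluorescence to track reagent binding. A clone's polyreactivity label is taken from the gate it came out of. The reagent was 10% biotinylated, detergent-solubilized Sf9 membrane, applied for 1 hour at 4 °C to galactose-induced yeast display cells.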
With “QVQLVESGGGLVQAGGSLRLSCAASGSIYVGNDMGWYSQAPGKESEFVATMSWAGGSTDYADSVKGRFTISRDNAKNTVYLQMNSQKPEDTAVYYCAKTPYSRYRYGGYTYRTFDYWGQGTQVTVSS”, the “polyreactivity (PSR sort gate)” value is “low polyreactivity”.

As to “QVQLVESGGGLVQAGGSLRLSCAASGSIYVNAMGWYRQAPGKERELVAVISKSGGSTYYADSVKGRFTISRDNAKNTVYLQMNSLKPEDTAVYYCATRGVSPSRPGYYWGQGTQVTVSS”, the “polyreactivity (PSR sort gate)” value is “high polyreactivity”.

On to “QVQLVESGGGLVQAGGSLRLSCAASGSIYVQNAMGWYRQAPGKERELVAAITFSGVDTYYADSVKGRFTISRDNAKNTVYFQMNSLKPEDTAVYYCNADRGYNLVRRSQAVVEMDYWGQGTQVTVSS”, for which the “polyreactivity (PSR sort gate)” value is recorded as “low polyreactivity”.

On to “QVQLVESGGGLVQAGGSLRLSCAASGSIYWYAMGWYTQAPGKERELVAAITKSGSSTYYADSVKGRFTISRDNANNTVYLQMNSLIPEDTAVYYCAARRAVSGGVRMYYWGQGTQVTVSS”, for which the “polyreactivity (PSR sort gate)” value is “high polyreactivity”.

In the case of “QVQLVESGGGLVQAGGSLRLSCAASGSIYYGKTMGWYRHAAGKEWELDAAISSGGSTKYADSVKGRFTISRDNAKNTVYLQMNSLKPEDTAVYYSAADLPRYWVTWMDYWGQGTQLTVSS”, the “polyreactivity (PSR sort gate)” value was “low polyreactivity”.

Take “QVQLVESGGGLVQAGGSLRLSCAASGSIYYTNAMGWYRQAPGKERELVAAISYGGTTTYADSVKGRFTISRDNAKNTVYLQMNSLKPEDTAVYYCNADWLYYGYWGYGHIWYDYWGQGTQVTVSS”: the “polyreactivity (PSR sort gate)” value is given as “low polyreactivity”.

With “QVQLVESGGGLVQAGGSLRLSCAASGSKFYTNVMGWYRQAPGKERELVARIDSGGSTNYADSVKGRFTISRDNAKNTVYLQMNSLKPEDTAVYYCAADWYIYDYWGQGTQVTVSS”, the “polyreactivity (PSR sort gate)” value is recorded as “low polyreactivity”.

For the sequence “QVQLVESGGGLVQAGGSLRLSCAASGSLFGGYAMGWYRQAPGKERELVAAISGSGGSTYYADSVKGRFTISRDNAKNTVYLQMNSLKPEDTAVYYCAAEYYGTYSEGGESYDYWGQGTQVTVSP”, the “polyreactivity (PSR sort gate)” value is reported as “low polyreactivity”.

As to “QVQLVESGGGLVQAGGSLRLSCAASGSLIRRYAMGWYRQAPGKEREFVAAISGRGGRTYYADSVKGRFTISRDNAKNTVYLQMNSLKPEDTAVYYCNAAFVTAEMDYWGQGTQVTVSS”, the “polyreactivity (PSR sort gate)” value is “high polyreactivity”.

“QVQLVESGGGLVQAGGSLRLSCAASGSLSSRNAMGAYRQAPGKERELVAAITRGSSTNYADSVKGRFTISRDNAKNTVYLQMNSLKPEDTAVYYCARRYDPVYKGMGYWGQGTQVTVSS”: the “polyreactivity (PSR sort gate)” value is “low polyreactivity”.

Take “QVQLVESGGGLVQAGGSLRLSCAASGSMFSVYAMGGYRQAPGKEMELVAAISRSGGSTYYADSVKGRFTISRDTAKNTVYLQMNSLKPEDTAVYYCAARLAGRGSSSSRVVRTGGYWGQGTQVTVSS”: the “polyreactivity (PSR sort gate)” value is “high polyreactivity”.

Turning to “QVQLVESGGGLVQAGGSLRLSCAASGSNFAVYAMGWYRQAPGKERELVAAISFSGGSTYYADSVKGRFTISRDNAKNTVYLQMNSLKPEDTAVYYCAADPWWTRTDLDYWGQGTQVTVSS”, the “polyreactivity (PSR sort gate)” value is reported as “low polyreactivity”.

For “QVQLVESGGGLVQAGGSLRLSCAASGSNFAYYTMGWYRPAPGKERELVAAITSGGSTYYADSVKGRFTISRDNAKNTVYLQMNSLKPEDTAVYYCATRHSVGRYGMDSWGQGTQVTVSS”, the “polyreactivity (PSR sort gate)” value is given as “high polyreactivity”.

As for “QVQLVESGGGLVQAGGSLRLSCAASGSNFDDNAMGWYRQAPGKERELVAAITRSGGSTYYADSVKGRFTISRDNAKNTVYLQMISLKPEDTAVYYCAAAAYHSYGPGKRFYYWGQGSQVTVSS”, the “polyreactivity (PSR sort gate)” value is listed as “high polyreactivity”.

As for “QVQLVESGGGLVQAGGSLRLSCAASGSNFDTYAMGWYIPAPGKERELVAVLTWSGGGTYYSDSVKGRFTISRDNANNTVYLQMTSVKPEVTAVYYCNAADFGWDYASYYWGQGTQLTVSS”, the “polyreactivity (PSR sort gate)” value is “low polyreactivity”.

Regarding “QVQLVESGGGLVQAGGSLRLSCAASGSNFETYVMGWYRQAPGKERELFAAINSGGSTNYADSVKGRFTISRDNAKNTVYLQMNSLKPEETAVYYCNADWFTPAQPWYRYFIRYDYWGQGSQVTVSS”, the “polyreactivity (PSR sort gate)” value is “low polyreactivity”.

Consider “QVQLVESGGGLVQAGGSLRLSCAASGSNFFYNVMGWYRQAPGKERELVAAITRSGGRTYYADSVKGRFTISRDNAKNTVYLQMNSLKPEDTAVYYCAAALGGKFDYWGQGTQVTVSS”, for which the “polyreactivity (PSR sort gate)” value is listed as “high polyreactivity”.

Turning to “QVQLVESGGGLVQAGGSLRLSCAASGSNFGPNAMGWYRQAPGKERELVAVISFRGGNTYYADSVKGRFTISRDNAKNTVYLQMNSLKPEDTAVYYCAARGYRYGYGYWGQGTQVTVSS”, the “polyreactivity (PSR sort gate)” value is “high polyreactivity”.

For the sequence “QVQLVESGGGLVQAGGSLRLSCAASGSNFGWYAMGWYRQAPGKERELVAAITFSSVSTYYADSEKGRFTISRDNAKNTVYLQMNSLKPEDTAVYYCAAVVYYTFDYWGLGTQVTVSS”, the “polyreactivity (PSR sort gate)” value is on record as “low polyreactivity”.

For “QVQLVESGGGLVQAGGSLRLSCAASGSNFLCYTMGWYRQAPGKERELVAAISRTGGSTYYADSVKGRFTISRDNAKNTVYLQRNSLKPEDTAVYYCAASLYSITRARYDYWGQGTQVTVSS”, the “polyreactivity (PSR sort gate)” value is given as “high polyreactivity”.

Turning to “QVQLVESGGGLVQAGGSLRLSCAASGSNFLYYAIGWYRQAPGKERELVDGIRRGGRTNYADSVKGRFTISRDNAKNTVYLQMNSLKPEDTAVYYCAKGGYWGQGTQVTVSS”, the “polyreactivity (PSR sort gate)” value is “high polyreactivity”.

As to “QVQLVESGGGLVQAGGSLRLSCAASGSNFNYYTMGWYRQAPGKERELVAAISYRGGRTYYADSVKGRFTISRDTSKNTVYLQMNSLKPEDTAVYYCNAVTRIYEVDYWGQGTQVTVSS”, the “polyreactivity (PSR sort gate)” value was “high polyreactivity”.

Consider “QVQLVESGGGLVQAGGSLRLSCAASGSNFQFNAMGWYRQAPGKEREFVAAITSSAGRTYYADSVKGRFTISRDNAKNTVYLQMNSLKPEDSAVYYCGDTFYRRYVDLGYWGQGTQVTVSS”, for which the “polyreactivity (PSR sort gate)” value is reported as “high polyreactivity”.

Turning to “QVQLVESGGGLVQAGGSLRLSCAASGSNFRSNAMGWYRQAPGKERELVAAISRRGGSTYYADSVKGRFRISRDIAKNTVYLQMNSLKPEDTAVYYCAAPTIVSGHDSWGQGTQVTVSS”, the “polyreactivity (PSR sort gate)” value is recorded as “high polyreactivity”.

Consider “QVQLVESGGGLVQAGGSLRLSCAASGSNFRSYAMGWYIQAPGKERELVAAITWGGNTYYADSVKGRFTISRDNAKNTVYLQMNSLKPEDTAVYYCAAKSYYTRRSKYDYWGQGTQVTVSS”, for which the “polyreactivity (PSR sort gate)” value is given as “high polyreactivity”.

On to “QVQLVESGGGLVQAGGSLRLSCAASGSNFRVYAMGWDRQAPGKERELVAAISSSGGITYYADSVKGRFTISRDNAKNTVYLQMNSLKPEDTAVYYCAKGTVIHVLYDYWGQGTQVTVSS”, for which the “polyreactivity (PSR sort gate)” value is given as “low polyreactivity”.

For the sequence “QVQLVESGGGLVQAGGSLRLSCAASGSNFSRNTMGWYRQAPWKERELVAGISSSGSRTYYADSVKGRFTISRDNAKNTVYLLMNSLKPEDTAVYYCAAEHQRSRGRRYYIGYDYWGQGTQVTVSS”, the “polyreactivity (PSR sort gate)” value is given as “low polyreactivity”.

Take “QVQLVESGGGLVQAGGSLRLSCAASGSNFTAYAMGWYRQAPGKERELVAAIDDSGDSTYYADSVKGRFTISRDNSKNTVYLQMNSLKPEDTAVYYCKAEYRVNKEYDYWGQGTQVTVSS”: the “polyreactivity (PSR sort gate)” value is given as “low polyreactivity”.

As to “QVQLVESGGGLVQAGGSLRLSCAASGSNFTAYAMGWYRQAPGKERELVAAITKSSVTYYADSVKGRFTISRDNAKNTVYLQMNSVKPEDTAVYYCAGYSPRPSDLYSPIAYYYWGQGTLVTVSS”, the “polyreactivity (PSR sort gate)” value is reported as “low polyreactivity”.

Consider “QVQLVESGGGLVQAGGSLRLSCAASGSNFTGYGMGWYRQAPGKETELVAAITWSGGSTYYADSVKGRFTISRDNAKNTVYLQMNSLKPEDTAVYYCATPGIYYEMDYWGQGTQVTVSS”, for which the “polyreactivity (PSR sort gate)” value is recorded as “low polyreactivity”.

On to “QVQLVESGGGLVQAGGSLRLSCAASGSNFTSNGMGWYRQAPGKERELVAAITRRGGRTYYADSVKGRFTISRDNAKNTVYLQMNSLKPEDTAVYYCAAKSTSLYDYWGQGTQVTVSS”, for which the “polyreactivity (PSR sort gate)” value is “low polyreactivity”.

Consider “QVQLVESGGGLVQAGGSLRLSCAASGSNFTVYDMGWYRQAPGKERELVAAISFSGGSTYYADSVKGRFTISRDTAKNTVYLQMNSLKPVDTAVYYCAADTYTTPYEYWGQGTQVTVSS”, for which the “polyreactivity (PSR sort gate)” value was “low polyreactivity”.

“QVQLVESGGGLVQAGGSLRLSCAASGSNFVKYVMGWSRQAPGKERELVAAITWRGGRTYYADSVKGRFTISRDNEKNTVYLQMNSLKPEDTAVYYCAAYDQSLYGRRYDYWGQGTQVTVST”: the “polyreactivity (PSR sort gate)” value is “high polyreactivity”.

Turning to “QVQLVESGGGLVQAGGSLRLSCAASGSNFYRNAMGWYRQAPGKERELVAGIRWTGTRTYYADSVKGRFTISRDNAKNTVYLQMNSLKPEDTAVYYCNAVYSLSNAVDGDYWGQVTQVTVSS”, the “polyreactivity (PSR sort gate)” value is given as “high polyreactivity”.

In the case of “QVQLVESGGGLVQAGGSLRLSCAASGSNIGTYAMGWYRQAPGKERELVAAISSSGGRTYYADSVKGRFTISRDNAKNTVYLQMNSLKPEDTAVYYCATKRVLTGYDSWGQGTQVTVSS”, the “polyreactivity (PSR sort gate)” value is listed as “high polyreactivity”.

For “QVQLVESGGGLVQAGGSLRLSCAASGSNITPNAMGWYRQAPGKERELVAAISSSSDRTYYADSVKGRFTISRDNAKNTVYLQMNSLKPEDTAVYYCAAYAQKRYYWGQGTQVTVSS”, the “polyreactivity (PSR sort gate)” value is “high polyreactivity”.

As for “QVQLVESGGGLVQAGGSLRLSCAASGSNSDPYAMGWYRQAPGKEREFVAAITFSVSSTYYADSVKGRFTISRDNAKNTVYLQMNSLKPEDTAVYYCAARRPLYPERDYWGQGTQVTVSS”, the “polyreactivity (PSR sort gate)” value is “high polyreactivity”.

As for “QVQLVESGGGLVQAGGSLRLSCAASGSNYGFYAMGWYRKAPGKERELVAVISSDGSTNYADSVKGRFTISRDNAKNTVYLQMNSLKPEDTAVYYCAADWSITYGDGGYWGQGTQVTVSS”, the “polyreactivity (PSR sort gate)” value was “low polyreactivity”.

With “QVQLVESGGGLVQAGGSLRLSCAASGSNYSGYAMGWARQAPGKERELVAAITKSGGRTYYADSVKGRFTISRDNAKNTVYLQMNSLKPEDTAVYYCAKAYPGTYREYDYWGQGTQVTVSS”, the “polyreactivity (PSR sort gate)” value is “high polyreactivity”.

With “QVQLVESGGGLVQAGGSLRLSCAASGSPFHRYVMGWYRQAPGKERELVAVINSTGGSTYYADSVKGRFTISRDHAKNTVDLQMNSLKPEDTAVYYCNAVRDWGPSQVYDGMDYWGQGTQVTVSS”, the “polyreactivity (PSR sort gate)” value is reported as “low polyreactivity”.

As to “QVQLVESGGGLVQAGGSLRLSCAASGSPFSRNAMGWYRPAPGKEREMVAAISYSGGSTYYADSVKGRFTISRDNAKNTVYLQLNSLKPEDTAVYYCNTYIVNYSGQEMVYWGQGTQVTVSS”, the “polyreactivity (PSR sort gate)” value is given as “high polyreactivity”.
